Here are results for one molecule from patent US7960513B2, “Antibody against a human ADAM protease” (Monash University, priority 2004, dated 2011).

Entries after “also recorded” stand apart in the source; their conditions may differ.

The target of assay [1] is T1, EphA3/ephrin-A5 Fc complex (Homo sapiens, UniProt P29320+P52803).
T1 construct: Fc fusion proteins of the ephrin-A5 and EphA3 extracellular domains fused to the hinge and Fc region of human IgG1 were produced as described
T1 sequence (P29320 21-541 limits assumed): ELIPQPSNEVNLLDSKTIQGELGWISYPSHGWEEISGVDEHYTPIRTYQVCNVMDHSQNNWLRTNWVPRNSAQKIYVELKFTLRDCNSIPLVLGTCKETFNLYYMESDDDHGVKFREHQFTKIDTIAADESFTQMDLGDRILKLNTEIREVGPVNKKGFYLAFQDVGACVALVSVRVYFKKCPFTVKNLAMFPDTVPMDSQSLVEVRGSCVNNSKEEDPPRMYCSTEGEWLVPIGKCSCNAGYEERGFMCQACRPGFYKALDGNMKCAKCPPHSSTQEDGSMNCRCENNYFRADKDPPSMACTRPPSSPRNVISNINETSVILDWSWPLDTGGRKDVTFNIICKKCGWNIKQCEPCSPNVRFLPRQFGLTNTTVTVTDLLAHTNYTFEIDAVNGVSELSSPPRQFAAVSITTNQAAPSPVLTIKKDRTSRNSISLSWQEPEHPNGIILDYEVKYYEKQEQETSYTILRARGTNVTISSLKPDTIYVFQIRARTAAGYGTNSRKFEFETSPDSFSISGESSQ
T1 sequence (P52803 21-203 limits assumed): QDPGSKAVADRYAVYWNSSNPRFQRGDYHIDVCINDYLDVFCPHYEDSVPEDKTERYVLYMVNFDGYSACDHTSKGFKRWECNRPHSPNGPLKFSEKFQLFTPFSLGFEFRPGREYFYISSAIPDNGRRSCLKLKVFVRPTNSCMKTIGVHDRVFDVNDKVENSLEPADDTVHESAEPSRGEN
In words: HTRF / FRET assay of EphA3/ephrin-A5/ADAM10D+C complex formation. In kind it is binding. Particulars: unlabelled protein at increasing concentrations, 320 nM complex. The protocol: FIG. 6. Fluorescence Energy Transfer (RET) analysis monitoring the formation of EphA3/ephrin-A5/ADAM10D+C complexes. • A) The proposed screening approach for inhibitors of the complex formation is based on a Homogeneous Time Resolved Fluorescence (HTRF™) Assay using a Eu^3+ chelate labeled donor and a XL665 labeled acceptor protein. Interactions between ADAM10 and its substrate, the EphA3/ephrinA5 complex are measured using (normalized) emission at 665 nm: the interaction brings the labels into proximity and triggers fluorescence resonance energy transfer (FRET), which initiates a chemical reaction cascade to produce an amplified fluorescent signal. […]
In this regard, screening or identification of inhibitors of complex formation is based on high-throughput homogeneous time resolved fluorescence (HTRF™) technology utilising donor and acceptor fluorescence labels that are conjugated to Fc-tagged proteins. An interaction between proteins brings the labels into proximity and triggers fluorescence resonance energy transfer (FRET), which initiates a chemical reaction cascade to produce an amplified fluorescent signal. […]
The proposed drug screening approach is based on homogeneous time resolved fluorescence HTRF™ technology utilising donor and acceptor fluorescence labels that are conjugated to Fc-tagged proteins. […]
(In general: Time-resolved FRET reads energy transfer from a long-lived donor to a nearby acceptor.)

Assay [2] concerns the target T2, ectodomain of EphA3 (Homo sapiens, UniProt P29320).
T2 construct: incubated with Fc-tagged ectodomains of Eph-A3, EphB2, EphB4 and ephrin-A2, ephrin-A5, ephrin-B2 (R&D systems); purchased R&D systems
T2 sequence (P29320 21-541 limits assumed): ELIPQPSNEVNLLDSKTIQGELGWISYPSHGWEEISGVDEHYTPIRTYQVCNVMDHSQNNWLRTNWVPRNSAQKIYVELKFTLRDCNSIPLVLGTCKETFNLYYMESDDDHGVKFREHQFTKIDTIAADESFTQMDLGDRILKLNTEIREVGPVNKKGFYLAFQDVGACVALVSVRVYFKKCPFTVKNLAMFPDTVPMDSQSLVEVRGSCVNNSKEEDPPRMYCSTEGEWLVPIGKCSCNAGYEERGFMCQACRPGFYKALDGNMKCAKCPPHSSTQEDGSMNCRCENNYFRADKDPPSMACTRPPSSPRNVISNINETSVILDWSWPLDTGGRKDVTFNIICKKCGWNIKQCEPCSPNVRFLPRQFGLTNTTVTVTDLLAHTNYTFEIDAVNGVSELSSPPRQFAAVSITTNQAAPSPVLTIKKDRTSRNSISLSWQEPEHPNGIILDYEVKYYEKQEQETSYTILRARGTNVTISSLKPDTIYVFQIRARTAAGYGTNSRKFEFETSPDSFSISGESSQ
Description: In vitro binding (Protein-A pull-down) assay. As to conditions: EphA3-Fc alone, without ephrin. The protocol: (§1) Pull-down experiments were done as follows: ADAM10D+C, ADAM17D+C w.t. or the alanine mutants (˜15 μg) were incubated with Fc-tagged ectodomains of Eph-A3, EphB2, EphB4 and ephrin-A2, ephrin-A5, ephrin-B2 (R&D systems) at 4° C. for 30 min in 500 μL of binding buffer containing 10 mM HEPES (pH 7.4), 150 mM NaCl and 0.05% of Triton X-100. To test binding to the preformed EphA3/ephrin-A5 complex, 5 μg of the untagged ephrin-A5 was incubated with Fc tagged EphA3 for 30 min at 4° C. followed by the addition of ADAM10. The proteins were incubated for an additional 30 min., when Protein-A-Sepharose (Amersham) beads were added to the reaction mixture and shaken at 4° C. for 2h. The beads were then harvested by centrifugation, washed once with 500 μl of binding buffer and the bound proteins were separated on a 10-20% gradient polyacrylamide gel. The binding of the individual ADAM domains was carried out likewise using 15 μg of the disintegrin and 8 μg of the cysteine-rich domain.

The target of assay [3] is T3, ephrin-A2 (Homo sapiens, UniProt O43921).
T3 construct: incubated with Fc-tagged ectodomains of Eph-A3, EphB2, EphB4 and ephrin-A2, ephrin-A5, ephrin-B2 (R&D systems); purchased R&D systems
T3 sequence (O43921 25-188 limits assumed): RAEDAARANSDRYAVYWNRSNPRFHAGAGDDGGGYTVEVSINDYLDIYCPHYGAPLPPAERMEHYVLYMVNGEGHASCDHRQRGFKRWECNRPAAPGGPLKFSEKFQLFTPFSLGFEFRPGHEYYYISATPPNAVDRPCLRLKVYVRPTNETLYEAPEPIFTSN
In words: In vitro binding (Protein-A pull-down) assay. Particulars: ephrin-Fc captured on Protein A Sepharose. The protocol:
as §1

For assay [4], the target named is T4, EphB4/ephrin-B2 complex (Homo sapiens, UniProt P52799+P54760).
T4 construct: incubated with Fc-tagged ectodomains of Eph-A3, EphB2, EphB4 and ephrin-A2, ephrin-A5, ephrin-B2 (R&D systems); purchased R&D systems
Description: In vitro binding (Protein-A pull-down) assay. As to conditions: Protein-A capture. The protocol:
as §1

Assay [5] concerns the target T5, EphA3/ephrin-A5 complex (Homo sapiens, UniProt P29320+P52803).
T5 construct: incubated with Fc-tagged ectodomains of Eph-A3, EphB2, EphB4 and ephrin-A2, ephrin-A5, ephrin-B2 (R&D systems)
T5 sequence (P29320 21-541 limits assumed): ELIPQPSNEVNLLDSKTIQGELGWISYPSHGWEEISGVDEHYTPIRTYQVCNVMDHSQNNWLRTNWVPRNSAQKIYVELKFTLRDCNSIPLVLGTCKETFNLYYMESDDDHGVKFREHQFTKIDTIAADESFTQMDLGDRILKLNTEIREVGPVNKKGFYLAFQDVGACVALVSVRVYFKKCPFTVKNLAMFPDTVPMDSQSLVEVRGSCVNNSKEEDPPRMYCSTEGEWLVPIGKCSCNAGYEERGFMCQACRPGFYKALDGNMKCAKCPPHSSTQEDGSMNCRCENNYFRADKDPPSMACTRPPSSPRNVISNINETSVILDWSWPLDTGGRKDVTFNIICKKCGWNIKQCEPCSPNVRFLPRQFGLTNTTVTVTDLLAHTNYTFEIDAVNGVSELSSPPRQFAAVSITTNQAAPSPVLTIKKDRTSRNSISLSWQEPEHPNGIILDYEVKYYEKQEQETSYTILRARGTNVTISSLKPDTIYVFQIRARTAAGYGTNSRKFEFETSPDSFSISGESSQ
T5 sequence (P52803 21-203 limits assumed): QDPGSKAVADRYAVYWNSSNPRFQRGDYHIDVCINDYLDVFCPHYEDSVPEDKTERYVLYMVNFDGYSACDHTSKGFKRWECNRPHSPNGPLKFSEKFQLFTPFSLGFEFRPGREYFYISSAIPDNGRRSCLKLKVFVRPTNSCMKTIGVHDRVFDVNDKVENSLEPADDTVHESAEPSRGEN
Description: In vitro binding (Protein-A pull-down) assay. The protocol: as §1

Assay [6] has as its target T6, ephrin-A1 (Homo sapiens, UniProt P20827).
T6 sequence (P20827 19-182 limits assumed): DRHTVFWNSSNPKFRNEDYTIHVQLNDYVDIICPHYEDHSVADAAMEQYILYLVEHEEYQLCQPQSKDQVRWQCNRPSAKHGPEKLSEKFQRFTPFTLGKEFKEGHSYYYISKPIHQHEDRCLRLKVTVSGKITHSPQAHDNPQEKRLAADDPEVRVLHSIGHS
Description: In vitro binding (Protein-A pull-down) assay. As to conditions: ephrin-Fc captured on Protein A Sepharose.

T4 sequence (P52799 28-229 limits assumed): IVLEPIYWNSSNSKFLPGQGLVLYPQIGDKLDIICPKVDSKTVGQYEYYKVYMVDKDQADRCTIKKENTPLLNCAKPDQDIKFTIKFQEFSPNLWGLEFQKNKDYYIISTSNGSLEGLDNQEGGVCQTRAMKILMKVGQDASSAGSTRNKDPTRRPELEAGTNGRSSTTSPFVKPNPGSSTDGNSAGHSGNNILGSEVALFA
T4 sequence (P54760 16-539 limits assumed): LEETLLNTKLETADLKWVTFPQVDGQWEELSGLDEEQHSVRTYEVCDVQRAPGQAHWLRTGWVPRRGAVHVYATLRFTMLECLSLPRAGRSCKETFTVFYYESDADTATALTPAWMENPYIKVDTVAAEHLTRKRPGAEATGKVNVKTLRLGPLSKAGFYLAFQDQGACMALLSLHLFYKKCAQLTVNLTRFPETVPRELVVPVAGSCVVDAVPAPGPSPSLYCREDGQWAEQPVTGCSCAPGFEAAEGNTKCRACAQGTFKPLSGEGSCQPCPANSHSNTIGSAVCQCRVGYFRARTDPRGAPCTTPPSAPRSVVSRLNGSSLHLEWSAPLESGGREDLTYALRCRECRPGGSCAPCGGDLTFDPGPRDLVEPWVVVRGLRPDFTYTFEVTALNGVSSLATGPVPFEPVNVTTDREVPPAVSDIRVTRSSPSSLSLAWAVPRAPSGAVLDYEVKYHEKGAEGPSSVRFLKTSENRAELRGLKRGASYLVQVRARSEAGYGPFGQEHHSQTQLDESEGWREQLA

B1: ADAM10D+C: recombinant bovine Adam10 disintegrin and cysteine-rich domains (residues 455-646), Fc tag removed (protein)
chain: SGQPICGNGMVEQGEECDCGYSDQCKDECCYDANQPEGKKCKLKPGKQCSPSQGPCCTAHCAFKSKTEKCRDDSDCAKEGICNGITALCPASDPKPNFTDCNRHTQVCINGQCAGSICEKHGLEECTCASSDGKDDKELCHVCCMKKMEPSTCASTGSVQWNKYFLGRTITLQPGSPCNDFRGYCDVFMRCR
For B1, the “inhibition of the labelled ADAM10D+C - EphA3/ephrin-A5 interaction (A665/A620)” value in assay [1] was “competitive inhibitor”. The “binding to EphA3 ectodomain” value in assay [2] is on record as “no interaction was seen”. In addition, in assay [3], the “binding to ephrin-A2” value is “bound”. The “binding to EphB4/ephrin-B2 complex” value in assay [4] is recorded as “little or no association; also recorded: does not bind”. The “binding to EphA3/ephrin-A5 complex” value in assay [5] (EphA3-Fc plus untagged ephrin-A5) is “readily bound and formed a stable complex; also recorded: binds”. Also, in assay [5] (single-chain ephrin-A5 lacking Fc, captured via EphA3-Fc), the “amount of EphA3-bound (complexed) ephrin-A5” value is “notably increased”. The “binding to ephrin-A1” value in assay [6] is recorded as “bound”.
